Results on ten molecules are retold here after PMC7709199, “Homogeneously N-glycosylated proteins derived from the GlycoDelete HEK293 cell line enable diffraction-quality crystallogenesis” (Acta Crystallographica. Section D, Structural Biology, 2020).

Series [1] in a line: achievable concentration for crystal screens. As to conditions: glycan lost; control: undigested HEK293S MGAT1−/− material.
Series [2] can be described thus: achievable concentration of CSF-1 complex. As to conditions: glycan changed form; control: wild-type (HEK293T) material.
Another series can be described thus: X-ray diffraction. As to conditions: glycan changed form; control: HEK293T-expressed protein.
A further series is described as follows: initial expression tests. As to conditions: glycan lost; control: other CSF-1RD1–D3 constructs.
Series [3] in a line: X-ray diffraction of CSF-1 complex crystals. As to conditions: glycan changed form; control: HEK293T-expressed receptor.
Series [4] deals with the molecule itself. Nature of the series: crystal structure; DSCAM_(Ig7–Ig9) from HEK293 GlycoDelete cells; space group C2, one molecule in the asymmetric unit, oligomer by crystallographic symmetry; 0.2 M calcium acetate, 10% PEG 8000, 0.1 M HEPES pH 7.5, 3% glycerol; 1.85 Å.
Series [5] deals with the molecule itself. Nature of the series: SEC; size-exclusion chromatography of IMAC-purified murine IL-12B from GD cells. (In general: Size exclusion chromatography separates by hydrodynamic size, large species first.)

Take “colony-stimulating factor 1 receptor (CSF-1RD1–D3): EndoH digestion”: in series [1], the “other: solubility” value is reported as “decreases”. For the molecule “colony-stimulating factor 1 receptor (CSF-1RD1–D3): GlycoDelete expression”, in series [2], the “other: solubility” value was “no change”. With “Down syndrome cell-adhesion molecule (DSCAMIg7–Ig9): GlycoDelete expression”, the “other: crystal diffraction quality, other: diffraction limit” value in “X-ray diffraction” was “increases, 1.85 vs ∼8”. Turning to “colony-stimulating factor 1 receptor (CSF-1RD1–D3): N73Q”, the expression_or_secretion result in the series “initial expression tests” is listed as “abolishes”. On to “colony-stimulating factor 1 receptor (CSF-1RD1–D3): HEK293S MGAT1−/− expression”, for which the “other: crystal diffraction quality, other: diffraction limit” value in series [3] is recorded as “increases, 4.5 vs did not diffract”. For “colony-stimulating factor 1 receptor (CSF-1RD1–D3): N240Q”, the expression_or_secretion entry in “initial expression tests” is “no change”. Same read-out and setting: under “colony-stimulating factor 1 receptor (CSF-1RD1–D3): N153Q” stands “no change”. Consider “colony-stimulating factor 1 receptor (CSF-1RD1–D3): N275Q”, for which the expression_or_secretion result in “initial expression tests” is on record as “no change”.

B1: human Down syndrome cell-adhesion molecule fragment DSCAM_(Ig7–Ig9) (domain or fragment)
chain: TVPPFIQPFEFPRFSIGQRVFIPCVVVSGDLPITITWQKDGRPIPGSLGVTIDNIDFTSSLRISNLSLMHNGNYTCIARNEAAAVEHQSQLIVRVPPKFVVQPRDQDGIYGKAVILNCSAEGYPVPTIVWKFSKGAGVPQFQPIALNGRIQVLSNGSLLIKHVVEEDSGYYLCKVSNDVGADVSKSMYLTVKIPAMITSYPNTTLATQGQKKEMSCTAHGEKPIIVRWEKEDRIINPEMARYLVSTKEVGEEVISTLQILPTVREDSGFFSCHAINSYGEDRGIIQLTVQEE
modifications: GlycoDelete N-glycan stubs at Asn666, Asn710, Asn748 and Asn795 (full Neu5AcGalGlcNAc at Asn795)
notes: one-residue cloning scar (Thr594) at the N-terminus; Down syndrome cell-adhesion molecule (DSCAM), human, UniProt O60469, residues 595–884 (Val595–Glu884), immunoglobulin domains Ig7, Ig8 and Ig9; one-residue cloning scar (Glu885) before the C-terminal 6×His tag; Expressed from pXLG behind a 34-residue signal peptide of pregnancy-specific glycoprotein 1 (UniProt P11464); The signal peptide is not …
Regarding B1, in series [4], the binding result is reported as “binds”.

B2: murine IL-12B (natural protein, UniProt P43432 23-335, looked up)
chain: MWELEKDVYVVEVDWTPDAPGETVNLTCDTPEEDDITWTSDQRHGVIGSGKTLTITVKEFLDAGQYTCHKGGETLSHSHLLLHKKENGIWSTEILKNFKNKTFLKCEAPNYSGRFTCSWLVQRNMDLKFNIKSSSSSPDSRAVTCGMASLSAEKVTLDQRDYEKYSVSCQEDVTCPTAEETLPIELALEARQQNKYENYSTSFFIRDIIKPDPPKNLQMKPLKNSQVEVSWEYPDSWSTPHSYFSLKFFVRIQRKKEKMKETEEGCNQKGAFLVEKTSTEVQCKGGNVCVQAQDRYYNSSCSKWACVPCRVRS
modifications: immature N-linked glycan on Asn220 (modelled as Man4GlcNAc2)
notes: signal peptide in the construct; The dimeric SEC fractions (disulfide-linked homodimer through Cys197) were pooled, polished on Mono Q and crystallised; also called IL-12p40 (monomer); IL-12p80 (homodimer); source: HEK293 GlycoDelete cells, transfected, secreted; purified (IMAC, SEC, Mono Q anion exchange)
As for B2, the “stoichiometry N” value in series [5] was 2.

In general, stoichiometry N refers to the number of molecules, sites or subunits per partner or assembly.
